PMC2063703 (The Journal of Cell Biology, 2006)
Where a chain is given by its changes, count along the chain named. Names may count otherwise.

B1: GST-SBP1 (natural protein)
chain: MAALAPLPPLPAQFKSIQHHLRTAQEHDKRDPVVAYYCRLYAMQTGMKIDSKTPECRKFLSKLMDQLEALKKQLGDNEAITQEIVGCAHLENYALKMFLYADNEDRAGRFHKNMIKSFYTASLLIDVITVFGELTDENVKHRKYARWKATYIHNCLKNGETPQAGPVGIEEDNDIEENEDAGAASLPTQPTQPSSSSTYDPSNMPSGNYTGIQIPPGAHAPANTPAEVPHSTGVASNTIQPTPQTIPAIDPALFNTISQGDVRLTPEDFARAQKYCKYAGSALQYEDVSTAVQNLQKALKLLTTGRE
B2: GST-Vta1 (natural protein)
chain: MASNAARVVATAKDFDKVGLGIIGYYLQLYAVELILSEEDRSQEMTALATELLDTIEAFKKEIGGESEAEDSDKSLHVMNTLIHDQEKAKIYMLNFTMSLYNEKLKQLKDGPWDVMLKRSLWCCIDLFSCILHLWKENISETSTNSLQKRIKYCKIYLSKLAKGEIGSSDEKTLDYADFADDSEEIKDEDVDHQTSDLENNNNDKVEGLAPKDQTTSYEPVDEVPEFIDDADSVNEEEQTVDKNEDAITKDEQQVVKKEVDLTRPSAPSEPAAAEHKSYTKDELTKIMDRASKIEQIQKLAKYAISALNYEDLPTAKDELTKALDLLNSI
B3: His6-Vta1 (natural protein)
chain: B2 chain
B4: GST-Vta1^K322A (natural protein)
chain: B2 chain with K322A
B5: Vta1 (purified recombinant, bacterially expressed) (natural protein)
chain: B2 chain
B6: GST-Vta1^S306A (natural protein)
chain: B2 chain with S306A
B7: GST-Vta1^ΔN68 (domain or fragment)
chain: AEDSDKSLHVMNTLIHDQEKAKIYMLNFTMSLYNEKLKQLKDGPWDVMLKRSLWCCIDLFSCILHLWKENISETSTNSLQKRIKYCKIYLSKLAKGEIGSSDEKTLDYADFADDSEEIKDEDVDHQTSDLENNNNDKVEGLAPKDQTTSYEPVDEVPEFIDDADSVNEEEQTVDKNEDAITKDEQQVVKKEVDLTRPSAPSEPAAAEHKSYTKDELTKIMDRASKIEQIQKLAKYAISALNYEDLPTAKDELTKALDLLNSI
B8: GST-Vta1^Δ37–68 (natural protein)
chain: MASNAARVVATAKDFDKVGLGIIGYYLQLYAVELILAEDSDKSLHVMNTLIHDQEKAKIYMLNFTMSLYNEKLKQLKDGPWDVMLKRSLWCCIDLFSCILHLWKENISETSTNSLQKRIKYCKIYLSKLAKGEIGSSDEKTLDYADFADDSEEIKDEDVDHQTSDLENNNNDKVEGLAPKDQTTSYEPVDEVPEFIDDADSVNEEEQTVDKNEDAITKDEQQVVKKEVDLTRPSAPSEPAAAEHKSYTKDELTKIMDRASKIEQIQKLAKYAISALNYEDLPTAKDELTKALDLLNSI
B9: Vps4 (enzyme)
chain: MSTGDFLTKGIELVQKAIDLDTATQYEEAYTAYYNGLDYLMLALKYEKNPKSKDLIRAKFTEYLNRAEQLKKHLESEEANAAKKSPSAGSGSNGGNKKISQEEGEDNGGEDNKKLRGALSSAILSEKPNVKWEDVAGLEGAKEALKEAVILPVKFPHLFKGNRKPTSGILLYGPPGTGKSYLAKAVATEANSTFFSVSSSDLVSKWMGESEKLVKQLFAMARENKPSIIFIDEVDALTGTRGEGESEASRRIKTELLVQMNGVGNDSQGVLVLGATNIPWQLDSAIRRRFERRIYIPLPDLAARTTMFEINVGDTPCVLTKEDYRTLGAMTEGYSGSDIAVVVKDALMQPIRKIQSATHFKDVSTEDDETRKLTPCSPGDDGAIEMSWTDIEADELKEPDLTIKDFLKAIKSTRPTVNEDDLLKQEQFTRDFGQEGN
B10: Vps4^E233Q (enzyme)
chain: B9 chain with E233Q

Assays:
Vps4^E233Q [1] = target: B10; test: pull-down
AUC = target: the molecule itself; test: AUC
Vps4^E233Q [2] = target: B10; test: SEC
Vps4 (yeast) = Vps4 (yeast) (UniProt P52917)
[3] = target: B5; test: SEC
SEC = target: the molecule itself; test: SEC

| Binder | binding result (Vps4^E233Q [1]) | other results |
| --- | --- | --- |
| RASKIEQIQKLAKYAISALNYEDLPTAKDELTKALDLLNSI (domain or fragment) [GST-VSL^Vta1] | binds | – |
| B1 | binds | – |
| EDFARAQKYCKYAGSALQYEDVSTAVQNLQKALKLLTTGRE (domain or fragment) [GST-VSL^SBP1] | binds | – |
| B2 | binds | – |
| B3 | – | stoichiometry N (AUC): 2 |
| B4 | binds | – |
| B5 | – | binding result (Vps4^E233Q [2]): binds |
| B6 | binds | – |
| B7 | binds | – |
| B8 | binds | – |
| B9 | – | Km of the Vps4 protein concentration-dependent ATPase activity, with 1 μM Vta1 (Vps4 (yeast)): 0.118 µM; Km of the Vps4 protein concentration-dependent ATPase activity, with 6 μM Vta1 (Vps4 (yeast)): 0.069 µM; Km of the Vps4 protein concentration-dependent ATPase activity, without Vta1 (Vps4 (yeast)): 1.1 µM |
| B10 | – | stoichiometry N [3]: ~1; stoichiometry N (SEC): 2 |
